Assay results as given in US10159726B2, “Peptides, combination of peptides and scaffolds for use in immunotherapeutic treatment of various cancers” (Immatics Biotechnologies GmbH, priority 2015, dated 2018).

Target: HLA-A*02 (Homo sapiens, UniProt P04439, D140Y/D185E/D98H/E176V/E277Q/G131W/G231S/I119V/I121R/I166T/I218V/N151K/N90K/P208A/P217A/Q86G/Q94H/R138H/R169H)
Test: MHC binding assay, UV-ligand exchange with beta2m ELISA, HLA-A*02
Conditions: peptide exchange yield
Description: Candidate peptides for T cell based therapies according to the present invention were further tested for their MHC binding capacity (affinity). The individual peptide-MHC complexes were produced by UV-ligand exchange, where a UV-sensitive peptide is cleaved upon UV-irradiation, and exchanged with the peptide of interest as analyzed. Only peptide candidates that can effectively bind and stabilize the peptide-receptive MHC molecules prevent dissociation of the MHC complexes. To determine the yield of the exchange reaction, an ELISA was performed based on the detection of the light chain (β2m) of stabilized MHC complexes. The assay was performed as generally described in Rodenko et al. (Rodenko et al., 2006).
96 well MAXISorp plates (NUNC) were coated over night with 2 ug/ml streptavidin in PBS at room temperature, washed 4× and blocked for 1 h at 37° C. in 2% BSA containing blocking buffer. […] Peptide-MHC monomers of the UV-exchange reaction were diluted 100 fold in blocking buffer. Samples were incubated for 1 h at 37° C., washed four times, incubated with 2 ug/ml HRP conjugated anti-β2m for 1 h at 37° C., washed again and detected with TMB solution that is stopped with […]. Absorption was measured at 450 nm. Candidate peptides that show a high exchange yield (preferably higher than 50%, most preferred higher than 75%) are generally preferred for a generation and production of antibodies or fragments thereof, and/or T cell receptors or fragments thereof, as they show sufficient avidity to the MHC molecules and prevent dissociation of the MHC complexes.

Substance | MHC class I binding score, Peptide exchange
19 (TLLPTVLTL; listed as Homo sapiens) [compound 19] | +++ (50%-75% = +++)
65 (KLDGICWQV; listed as Homo sapiens) [compound 65] | +++ (50%-75% = +++)
45 (VLGPTPELV; listed as Homo sapiens) [compound 45] | +++ (50%-75% = +++)
79 (SLVPLQILL; listed as Homo sapiens) [compound 79] | ++++ (>=75% = ++++)
90 (GAVAEEVLSSI; listed as Homo sapiens) [compound 90] | + (<20% = +)
12 (GLIYEETRGV; listed as Homo sapiens) [compound 12] | ++ (20%-49% = ++)
323 (ILSVVNSQL; listed as Homo sapiens) [compound 323] | +++ (50%-75% = +++)
59 (ALTKILAEL; listed as Homo sapiens) [compound 59] | +++ (50%-75% = +++)
89 (YLVAHNLLL; listed as Homo sapiens) [compound 89] | +++ (50%-75% = +++)
42 (VLSPFILTL; listed as Homo sapiens) [compound 42] | +++ (50%-75% = +++)
340 (SVAKTILKR; listed as Homo sapiens) [compound 340] | ++ (20%-49% = ++)
326 (SLLPLVWKI; listed as Homo sapiens) [compound 326] | +++ (50%-75% = +++)
48 (TLDHKPVTV; listed as Homo sapiens) [compound 48] | ++ (20%-49% = ++)
18 (YVLNEEDLQKV; listed as Homo sapiens) [compound 18] | +++ (50%-75% = +++)
82 (VLLRVLIL; listed as Homo sapiens) [compound 82] | ++ (20%-49% = ++)
66 (FITDFYTTV; listed as Homo sapiens) [compound 66] | +++ (50%-75% = +++)
324 (AIFDFCPSV; listed as Homo sapiens) [compound 324] | ++++ (>=75% = ++++)
74 (ILDETLENV; listed as Homo sapiens) [compound 74] | ++ (20%-49% = ++)
3 (TLLGKQVTL; listed as Homo sapiens) [compound 3] | +++ (50%-75% = +++)
24 (FLWNGEDSAL; listed as Homo sapiens) [compound 24] | +++ (50%-75% = +++)
84 (FLEEEITRV; listed as Homo sapiens) [compound 84] | +++ (50%-75% = +++)
21 (SLYHRVLLY; listed as Homo sapiens) [compound 21] | ++++ (>=75% = ++++)
328 (SVDSAPAAV; listed as Homo sapiens) [compound 328] | ++ (20%-49% = ++)

Substance | MHC class I binding score, Peptide exchange
26 (KVDGVVIQL; listed as Homo sapiens) [compound 26] | +++ (50%-75% = +++)
57 (VLISSTVRL; listed as Homo sapiens) [compound 57] | ++ (20%-49% = ++)
67 (GVIETVTSL; listed as Homo sapiens) [compound 67] | ++ (20%-49% = ++)
329 (FAWEPSFRDQV; listed as Homo sapiens) [compound 329] | ++ (20%-49% = ++)
77 (IVLSTIASV; listed as Homo sapiens) [compound 77] | +++ (50%-75% = +++)
81 (VLFLGKLLV; listed as Homo sapiens) [compound 81] | ++ (20%-49% = ++)
63 (TLSSERDFAL; listed as Homo sapiens) [compound 63] | + (<20% = +)
337 (KVLGKIEKV; listed as Homo sapiens) [compound 337] | +++ (50%-75% = +++)
87 (YLTEVFLHVV; listed as Homo sapiens) [compound 87] | +++ (50%-75% = +++)
80 (TLDEYLTYL; listed as Homo sapiens) [compound 80] | +++ (50%-75% = +++)
14 (LLDHLSFINKI; listed as Homo sapiens) [compound 14] | ++ (20%-49% = ++)
60 (FLIDTSASM; listed as Homo sapiens) [compound 60] | ++ (20%-49% = ++)
330 (FLWPKEVEL; listed as Homo sapiens) [compound 330] | +++ (50%-75% = +++)
5 (SLFGQEVYC; listed as Homo sapiens) [compound 5] | +++ (50%-75% = +++)
27 (KVFGDLDQV; listed as Homo sapiens) [compound 27] | +++ (50%-75% = +++)
51 (LLLDGDFTL; listed as Homo sapiens) [compound 51] | +++ (50%-75% = +++)
83 (ELLEYLPQL; listed as Homo sapiens) [compound 83] | +++ (50%-75% = +++)
338 (LLYDGKLSSA; listed as Homo sapiens) [compound 338] | ++ (20%-49% = ++)
62 (SLFNQEVQI; listed as Homo sapiens) [compound 62] | +++ (50%-75% = +++)
70 (GLFSQHFNL; listed as Homo sapiens) [compound 70] | +++ (50%-75% = +++)
85 (STLDGSLHAV; listed as Homo sapiens) [compound 85] | +++ (50%-75% = +++)
58 (ALDDSLTSL; listed as Homo sapiens) [compound 58] | ++ (20%-49% = ++)
22 (MLSDLTLQL; listed as Homo sapiens) [compound 22] | ++++ (>=75% = ++++)

Substance | MHC class I binding score, Peptide exchange
49 (LLDESKLTL; listed as Homo sapiens) [compound 49] | +++ (50%-75% = +++)
4 (ELAEIVFKV; listed as Homo sapiens) [compound 4] | +++ (50%-75% = +++)
37 (ALINDILGELVKL; listed as Homo sapiens) [compound 37] | +++ (50%-75% = +++)
11 (GVLKVFLENV; listed as Homo sapiens) [compound 11] | ++ (20%-49% = ++)
47 (GLYQAQVNL; listed as Homo sapiens) [compound 47] | +++ (50%-75% = +++)
56 (KILDLTRVL; listed as Homo sapiens) [compound 56] | ++ (20%-49% = ++)
39 (ALMAVVSGL; listed as Homo sapiens) [compound 39] | +++ (50%-75% = +++)
88 (ILLNTEDLASL; listed as Homo sapiens) [compound 88] | +++ (50%-75% = +++)
75 (ILDNVKNLL; listed as Homo sapiens) [compound 75] | +++ (50%-75% = +++)
44 (GLLWQIIKV; listed as Homo sapiens) [compound 44] | ++ (20%-49% = ++)
16 (HLYNNEEQV; listed as Homo sapiens) [compound 16] | ++ (20%-49% = ++)
76 (ILLDESNFNHFL; listed as Homo sapiens) [compound 76] | +++ (50%-75% = +++)
92 (LLRGPPVARA; listed as Homo sapiens) [compound 92] | ++ (20%-49% = ++)
50 (EYALLYHTL; listed as Homo sapiens) [compound 50] | ++ (20%-49% = ++)
41 (FVLPLVVTL; listed as Homo sapiens) [compound 41] | +++ (50%-75% = +++)
52 (ELLSSIFFL; listed as Homo sapiens) [compound 52] | +++ (50%-75% = +++)
335 (VLLAAGPSAA; listed as Homo sapiens) [compound 335] | ++ (20%-49% = ++)
72 (GMIGFQVLL; listed as Homo sapiens) [compound 72] | +++ (50%-75% = +++)
13 (VLRDNIQGI; listed as Homo sapiens) [compound 13] | +++ (50%-75% = +++)
23 (AQTVVVIKA; listed as Homo sapiens) [compound 23] | + (<20% = +)
40 (SLLALPQDLQA; listed as Homo sapiens) [compound 40] | +++ (50%-75% = +++)
64 (GLSSSSYEL; listed as Homo sapiens) [compound 64] | ++ (20%-49% = ++)
